From the supplement of paper PMC10724198
± gives the standard deviation of the averaged measurements.

Key:
Saccharomyces cerevisiae [1] = assay: protein stability index of tFT-peptide fusion (C-terminal peptide) (PSI (0-1 scale)); higher = more stable (slower turnover)
Description: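 MPS profiling in S. cerevisiae of the tFT-X12 degron library: putative degron peptides plus stable controls, 12 aa, fused to the C-terminus of a sfGFP-mCherry timer. Cells are FACS-sorted into 8 mCherry/sfGFP bins and deep-sequenced. PSI runs from 0 (unstable) to 1 (stable). Backgrounds are wild type, das1Δ and doa10Δ at 30 °C, and wild type, das1Δ, cdc34-1 and cdc53-1 at 37 °C; 2-3 technical replicates each.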

Saccharomyces cerevisiae [2] = assay: as above; conditions: genetic background: wild type; temperature: 30 C
[3] = genetic background: cdc34-1, temperature: 37 C
[4] = genetic background: cdc53-1, temperature: 37 C
[5] = genetic background: das1 deletion, temperature: 30 C
[6] = genetic background: das1 deletion, temperature: 37 C
[7] = genetic background: doa10 deletion, temperature: 30 C
[8] = genetic background: wild type, temperature: 30 C
[9] = genetic background: wild type, temperature: 37 C
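Also: PSI is a weighted mean of sequencing reads over stability bins, variants kept only with over 10 reads, mCherry proximal and sfGFP distal, peptide attached via GGGS linker.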

Sequence	protein stability index (Saccharomyces cerevisiae [1]; [3])	protein stability index (Saccharomyces cerevisiae [1]; [4])	protein stability index (Saccharomyces cerevisiae [1]; [5])	protein stability index (Saccharomyces cerevisiae [1]; [6])	protein stability index (Saccharomyces cerevisiae [1]; [7])	protein stability index (Saccharomyces cerevisiae [1]; [8])	protein stability index (Saccharomyces cerevisiae [1]; [9])	protein stability index (Saccharomyces cerevisiae [2])
RLMVHQHTIPVR	0.463 ± 0.072	0.54 ± 0.016	0.307 ± 0.037	0.559 ± 0.021	0.276 ± 0.035	0.316 ± 0.0095	0.533 ± 0.0081	0.4449 ± 0.0039
RLVIFITRYLIS	0.337 ± 0.043	0.488 ± 0.066	0.349 ± 0.044	0.562 ± 0.015	0.116 ± 0.03	0.162 ± 0.016	0.275 ± 0.0028	0.2581 ± 0.00054
RLVYSQKRWSLF	0.673 ± 0.07	0.764 ± 0.032	0.653 ± 0.014	0.76378 ± 0.0006	0.167 ± 0.037	0.181 ± 0.032	0.451 ± 0.027	0.24 ± 0.006
RPGRWFCFLYCV	0.382 ± 0.063	0.4311 ± 0.002	0.418 ± 0.022	0.532 ± 0.011	0.163 ± 0.01	0.141 ± 0.017	0.233 ± 0.0093	0.185 ± 0.005
RPIFAYRPLRFL	0.656 ± 0.047	0.757 ± 0.001	0.654 ± 0.014	0.763 ± 0.023	0.212 ± 0.0076	0.231 ± 0.04	0.503 ± 0.015	0.342 ± 0.053
RPNTFRTRAKAL	0.636 ± 0.013	0.712 ± 0.019	0.619 ± 0.026	0.734 ± 0.017	0.145 ± 0.003	0.168 ± 0.039	0.333 ± 0.057	0.274 ± 0.081
RRFKKTEIIKNN	0.625 ± 0.024	0.765 ± 0.048	0.653 ± 0.022	0.7804 ± 0.0062	0.1324 ± 0.00038	0.143 ± 0.053	0.29 ± 0.048	0.247 ± 0.004
RRVPVHIHFSLF	0.627 ± 0.0066	0.707 ± 0.028	0.691 ± 0.014	0.732 ± 0.039	0.156 ± 0.0052	0.194 ± 0.021	0.393 ± 0.033	0.291 ± 0.03
RSKKIFLTKKYS	0.608 ± 0.053	0.734 ± 0.042	0.64 ± 0.035	0.701 ± 0.018	0.162 ± 0.0021	0.202 ± 0.025	0.395 ± 0.044	0.281 ± 0.075
RSPIRYPPVVLS	0.698 ± 0.038	0.753 ± 0.011	0.645 ± 0.021	0.7493 ± 0.0034	0.539 ± 0.021	0.539 ± 0.008	0.6895 ± 0.0015	0.518 ± 0.07
